# Assay: yeast display, Sf9 membrane polyspecificity reagent, FACS + sequencing; frameworks hold sequencing errors
# Procedure, shortened: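 Galactose-induced (36–48 hours) yeast carrying a synthetic nanobody display library were exposed to 10% biotinylated, detergent-solubilized Sf9 membrane reagent at 4 °C for 1 hour. FACS followed streptavidin microbead enrichment, using low and high (top ~1%) gates for expression (anti-HA) and reagent binding (streptavidin). Colony PCR, MiSeq 2 × 250 sequencing and CDR-length filtering followed. Labels for polyreactivity reflect the gate of origin.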
row,Sequence,polyreactivity (PSR sort gate)
1,QVQLVESGGCLVQAGVSLRLSCAASGSIFSPYAMGWYRQAPGKEREFVASITFNGGSTYYADSVKGRFTISRDNAKNTVYLQMNSLKPEDTAVYYCAASYWYDTYWLMDYWGQGPQVTVSS,high polyreactivity
2,QVQLVESGGCLVQARGSLRLSCAASGSTFGTYAMGWYRQPPGKERELVAAIRWSGVSTYYADSVKGRFTISRDNAKNTVYLEMNSLKPEDTAVYYCAVALWVRGTYIYEYWGQGSQVTVSS,high polyreactivity
3,QVQLVESGGCLVQARGSLRLSCAASGSTFTYNTMGWYRQAPGKESELVAGITKSGGSTYYADSVKGRFTISRDKAKNTVYLQMNSLKPEDTAVYYCATSTSRRYGSRHNYWGQGTQVTVSS,high polyreactivity
4,QVQLVESGGCLVQEGGSLRLSCAASGSIFHDYIMGWYRQAPGKEMELVAAMSSGGSTYYADSVKGRFTISRDNAKNTVYLQMNSLKPEDTEVYYCAAKSRSQVYPHYYWGQGTQVTVSS,low polyreactivity
5,QVQLVESGGCLVQEGGSLRLSCDASGRTFLTYAMGWYRQAPGKERELVAAITDGDSTNYADSVKGRFTISRDNAKNNVYLQMNSLKPEDTAVYYCNADSLAYRYYYWGQGTQVTVSS,high polyreactivity
6,QVQLVESGGCLVQSGGSLRLSCAASGIILYYYAMGWYRQAPGKERELVAAISSGGNTYYADSVKGRFTISRDNAKNTVYLQMNSLKPEDPAVYFCASGTVIGGEYDYWGQGTQVTVSS,low polyreactivity
7,QVQLVESGGDLVQAGGSLRLSCAASGFTLTNYAMGWYRQATGKARELVAAITSSGGSTYYADSVKGRFTISRDNAKNTVYFQMNSLKPEDTAVYYCAAQGSRHFRWRYDYWGQGTQVTVSS,high polyreactivity
8,QVQLVESGGGFDQAGGSLRLSCAACGSIFWSNAMGWYRQAPGKERELVAAISSGGSTYADSVKGRLTISRDNAKNTVYLQMNSLKPEDNAVYYCNADVLYGDCYRGGYWGQGTQVTVSS,low polyreactivity
9,QVQLVESGGGFVHAGGSLRLSCAASGLIFGKYAMGWYRQAPGKERELVAAITSSGGGTYYADSVKGRFTISRDNAKNTVSLQMNSVKADDTAVYYCATGPDPKYDYRGQGTQVTVSS,high polyreactivity
10,QVQLVESGGGFVQAGGSHRLSCASSGRTFVLYTMGLYRQAPGKERELVAVGSTYYADSVKGRFTISRDNAKNTVYLQMNSLKPEDTALYYCNKPGNYLWRRSWDFYYWGQGTQVTVST,high polyreactivity
11,QVQLVESGGGFVQAGGSLRLICAAYRSIFSLYAMGWYRQAPGKERELVAHISSDGSTNYADSVKGRFTISRDNAKNTVYLQMNSLKPEDTAVYYCAKKPSSARYFTIGFDYWGQGTQVTVSS,low polyreactivity
12,QVQLVESGGGFVQAGGSLRLSCAASGFTFVGYAMGWYRQAPGKERELVAAITRRGGSTYYADSVKGRFTISRDNAKNTVYLQMNSLKPEDTAVYYCNKASYRISVPRYDYWGQGTQVTVSS,high polyreactivity
13,QVQLVESGGGFVQAGGSLRLSCAASGGIFGSYAIGWYRQAPGKERELVADITQSGGRTRNADSVKGRFTSSRDNAKNTVYLQKNSLKPEDTALYYCNAQDVDSGDDYDYWGQGTQVTVSS,low polyreactivity
14,QVQLVESGGGFVQAGGSLRLSCAASGLIFGRYGLGWYRQAPGKAREFVAAITQSGGATYYADSVKGRFTISRDNAKNTVYLQMNSLKPEDTAVYYCNAPIAYWRVHDKYGYWGQGTQLTVSS,low polyreactivity
15,QVQLVESGGGFVQAGGSLRLSCAASGLTFYGYAMGWYRQEPGKERELVAAISGSGARTYYADSVKGRFTISRDNAKNTVYFQMNSLKPEDTAVYYCAVRGSWYSEHNYWGQGTQVTVSS,high polyreactivity
16,QVQLVESGGGFVQAGGSLRLSCAASGRIFRYYAMGWSRQAPGKERELVAAINSGGSTKYADSVKGRFTISRDNAKNTVYFQMNSLNPEDTAVYYCNKDHAFSRYWYGGFDYWGQGTQVTVSS,high polyreactivity
17,QVQLVESGGGFVQAGGSLRLSCAASGRIRFYAMGWYRQAPGKERELVAAISSSGGSTYYADSVKGSFTISRDNAKNTVYLQMNSLKPEDTAVYYCAAAWYYLGTRAQLYDYWGQGTQVTVSS,low polyreactivity
18,QVQLVESGGGFVQAGGSLRLSCAASGRTFPRYAMGWYRQAPGKERELVAAITRGGGTNYADSVKGRFTISRDNAKNTVYLQMNSLKPEDTAVYYCNRALLYRGYKFDYWGQGTHVTVSS,high polyreactivity
19,QVQLVESGGGFVQAGGSLRLSCAASGRTFRWNAMGWYRQAPGKERELVAAISSGGSTYYADSVKGRFTISRDNAKNTVYLQMNSLKPEDTAVYYCAKTSFKYRWSYPVISMDYWGQATQVTVSS,high polyreactivity
20,QVQLVESGGGFVQAGGSLRLSCAASGSIFAYYVMGWYRPAPGTERELGAAITSVGSTNYADSVKGRFTISRDNAKNTVYLQMNSLKPQDTAVYYCADDQYQARYYYWGQGTQVTVSS,low polyreactivity
21,QVQLVESGGGFVQAGGSLRLSCAASGSIFKRYAMGWYRQAPGKEWELVARISRRGGTYYADSVKGRFTISRDNAKNTVYLQINSLKPDDTAVYYCNANVIFADNNDRDYWGQGTQVTVSS,low polyreactivity
22,QVQLVESGGGFVQAGGSLRLSCAASGSIFVTNAMGWYRQAPGKDRELVAAISVSGGSTYYADSVKGRFTISRDNAKNTVYLQMNSLKPEDTAVYYCNTVRSPPGHDYWGLGTQVTVSS,low polyreactivity

row,Sequence,polyreactivity (PSR sort gate)
1,QVQLVESGGGFVQAGGSLRLSCAASGSTFHDNAMGWYRQAPGKERELVAGISISGVSTFYADSVKGRFTISRDYAKNTVYLQMNSLKPEDTAVYYCTADDVSAYQRFDYWGQGTQVTVSS,low polyreactivity
2,QVQLVESGGGFVQAGGSLRLSCAASGSTFYHNAMGWYRPAPGKERELVAAISSGGSTHYADSVKGRFTISRDNEKNTVYLQKNILKPEDTAVYYCAKARPGFLYDHWGQGTQVTVSS,high polyreactivity
3,QVQLVESGGGFVQAGGSLRLSCASSGRTFHYYAMGWYRQAPGKERELVAAISFDGGTTYYADSVKGRFTISRDNAKNTVYLHMNSPKPEDTAVYYCNALRYRDRVGYNYWGQGTQVTVSS,high polyreactivity
4,QVQLVESGGGFVQAGGSLRLSCVPSGRTYEPYAMGWYRQAPGKERELVAAIRWSGDRTYYADSVKGRFTISRDFAKITVYLHMISLKPEDTAVYYCAADYRARRWGMDYWGQGTQVTVSS,high polyreactivity
5,QVQLVESGGGFVQAGGSLRLSGAASGSIFYCNAMGWYRQAPGKDRELVAAISYSGGSTYYADSVKGRFTLSRDTAKNTVYLQMNSLKPEDTAVSDGAAGPITLRYLTIYYTFDYWGQGTQVTVSS,high polyreactivity
6,QVQLVESGGGFVQAGGSLSLSCAASGSTFIRYVMGWYRQAPGKERELVASITISVGSTYADSVKGRFTISRDNAKNTVYLQMNRMNPEDTAVYYCAASTLKDIYLWFRVDYWGQGTQVTVSS,low polyreactivity
7,QVQLVESGGGIGQAGGSLRLSCAASGFTFSRYTMAWFRRAPGKERELVAAINRRGGSTYYADSVKGRFTISRDNAKNTVYLQMNCEKPEDTAVYYCAATYTVRSGNGIANDYWGQGTQVTVSS,high polyreactivity
8,QVQLVESGGGILQAGGSLRLSCAASGSIFGGNAMGWYRQAPGKERELVAAITSTVSTNYADSVKGRFTISRDNAKNTVYLQMNSLKPEDTAVYYCANDTSNVEGDYWGQGTQVTVSS,low polyreactivity
9,QVQLVESGGGILQARGSRPLICAASGSNLSYNAMGWYRQAPGKEREFVATITGTGGSTRYADSVKGRFTFSRDNAKNTVYLQMNSLNPEDTAVYYCATAAWWYYRIYHEFGFLGQGTQVTVSS,high polyreactivity
10,QVQLVESGGGIVEAGVSLRISCAASGSIFTKNAMVWYRPAPGKARELVAAISSGGSTYYADSEKGRFSISRDNAKNTVYLQMNSLKPEDTAVYYCARGASFYLKFYYWGQGTQVTVSS,high polyreactivity
11,QVQLVESGGGIVQAGCSLRLSCAPSGSTFKNNAMGWDRQAPGKEREFVASIYKRGGSTYYADSVKGRFTISRDNAKNTVYLQKKSLTPEDTAVYYCAKTYWSYGWSHGDYGEVDYWGQGTQVNVSS,high polyreactivity
12,QVQLVESGGGIVQAGCSLRLSSAASGFTFYGYAMGWYRQAPGKERELVAAMSWDGSSTYYADSVKGRFTISRDNAKNTVYLPMNSLKPEDTAVYYCAREYYYGYYYPIQSDYWGQGTQVTVSS,low polyreactivity
13,QVQLVESGGGIVQAGGILRLSCAASGRISVFNDMGWYRQAPGKERELVAAITSGGSTKYADSVKGRFTISRDNAKNTVYLQMNSLKPEDTAVYYCASLYQFHGKIWDGDYWGQGTQVNVSS,low polyreactivity
14,QVQLVESGGGIVQAGGILRLSCAASGRNLHGYTMGWYRQAPGKERELVATISSIGGSTYYADSVKGRFTISRDNAKNTVYLQMNSLKPEDTAVYYCAATRGRRYQSYYWGQGTQVTVSS,low polyreactivity
15,QVQLVESGGGIVQAGGILRLSSAASGRTFYSYTMGWSRQEPGKERELVAAINRGGSTYYADSVKGRFTISRDKAKNTVYLQMNSLKPEDTEVYYCAVGYAHSSNRRYYYKKTHGYWGQGTQVTVSS,low polyreactivity
16,QVQLVESGGGIVQAGGRLRLSCAASGFPSTLMLWDGIDRRLGKKGSWLPIISYNGGSTYYADSVKGRFTISRDNANNTVYLQMNSLKPVDTAVYYCYTAVGEYESDYWGQGTQVTVSS,low polyreactivity
17,QVQLVESGGGIVQAGGRLRLSCAASGSIFYYYAKGWYRQAPGTERELVASINSGVSTYYADSVKGRFTNSRDNAKNTVYLQMNSLKPVDTAVYYCAAPGHNLYGSWFSWTPDTYDYWGQGNQVTVSS,low polyreactivity
18,QVQLVESGGGIVQAGGSIRLSCAASGYTFAKYAMGWYRQAPGKERELVAAITFSDTSTYYADSVKGRFTISRDNAKNTVYLQMNSLKPEDTAVYYCAVVGPYYSRFGGRYYYWGQGTQVTVSS,low polyreactivity
19,QVQLVESGGGIVQAGGSLRLISAASGRTYKSYTIGWYRQAPGKEREFVAAISSRGGNTYYADSVKGRFTISRDNAKNTVYLQMNSLKPEDTAVYYCAARYGYSYDRRDYWGQGTQVTVSS,high polyreactivity
20,QVQLVESGGGIVQAGGSLRLRCAASGFTFSRNAMVWYRQAPGKERELVAAITWSGGRTYYADSVKGRFTISRDNAKNTVYLQMNSLKPEDTAVYYCAARKYHLRSAYDYWGQGTKVTVSS,low polyreactivity
21,QVQLVESGGGIVQAGGSLRLSCAASGFIFGSYAMGWYRQAPGKERELVAAINSVDRTYYADSVKGRFTISRDNAKNTVYLQMNSLKPEDTAVYYCAATIAPTPGYIIYDYWGQGTQVTVSS,high polyreactivity

# — the nanobody polyreactivity screen of Harvey et al. (2022)
